Measurements published in patent US20180155407A1 (Sanofi, published 2018).
Numbered stars: 1 amine (or outer) side, 2 acyl side, 3 side chain; on linkers, the order of the positions; unused ones are H or OH. Square brackets hold non-standard residues; d marks the D form. Side chains are listed from the residue outwards. Ends that are not written are not given here. * marks the point of attachment. γGlu = O=C(O)[C@H](CCC(=O)[*:2])N[*:1]; Palmitoyl = CCCCCCCCCCCCCCCC(=O)*; gAAA = not defined here; AEEA = NCCOCCOCC(=O)O; Aib = CC(C)(N)C(=O)O

T1: human GIP receptor (human, UniProt P48546 22-466)
T1 sequence (looked up): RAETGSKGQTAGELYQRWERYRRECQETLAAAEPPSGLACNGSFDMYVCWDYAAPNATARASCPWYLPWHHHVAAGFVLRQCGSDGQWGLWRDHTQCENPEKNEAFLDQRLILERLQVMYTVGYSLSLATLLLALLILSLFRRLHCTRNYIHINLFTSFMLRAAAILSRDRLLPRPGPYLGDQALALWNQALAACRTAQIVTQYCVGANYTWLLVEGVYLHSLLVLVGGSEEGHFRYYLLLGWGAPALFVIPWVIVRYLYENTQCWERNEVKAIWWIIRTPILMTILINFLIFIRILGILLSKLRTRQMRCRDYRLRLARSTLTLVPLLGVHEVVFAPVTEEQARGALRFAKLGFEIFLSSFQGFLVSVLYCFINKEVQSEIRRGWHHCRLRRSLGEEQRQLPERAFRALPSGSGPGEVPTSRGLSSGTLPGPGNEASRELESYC

B1: SEQ ID NO: 19 (peptide)
peptide: H[Aib]QGTFTSDLSKLK([γGlu-γGlu-AEEA-Palmitoyl])EEQRQ[Aib]EFIEWLKA[dA]GHPS[Aib]KPPPK-NH2
modifications: N-terminus assumed
SMILES: CCCCCCCCCCCCCCCC(=O)NCCOCCOCC(=O)N[C@@H](CCC(=O)N[C@@H](CCC(=O)NCCCC[C@H](NC(=O)[C@H](CC(C)C)NC(=O)[C@H](CCCCN)NC(=O)[C@H](CO)NC(=O)[C@H](CC(C)C)NC(=O)[C@H](CC(=O)O)NC(=O)[C@H](CO)NC(=O)[C@@H](NC(=O)[C@H](Cc1ccccc1)NC(=O)[C@@H](NC(=O)CNC(=O)[C@H](CCC(N)=O)NC(=O)C(C)(C)NC(=O)[C@@H](N)Cc1c[nH]cn1)[C@@H](C)O)[C@@H](C)O)C(=O)N[C@@H](CCC(=O)O)C(=O)N[C@@H](CCC(=O)O)C(=O)N[C@@H](CCC(N)=O)C(=O)N[C@@H](CCCNC(=N)N)C(=O)N[C@@H](CCC(N)=O)C(=O)NC(C)(C)C(=O)N[C@@H](CCC(=O)O)C(=O)N[C@@H](Cc1ccccc1)C(=O)N[C@H](C(=O)N[C@@H](CCC(=O)O)C(=O)N[C@@H](Cc1c[nH]c2ccccc12)C(=O)N[C@@H](CC(C)C)C(=O)N[C@@H](CCCCN)C(=O)N[C@@H](C)C(=O)N[C@H](C)C(=O)NCC(=O)N[C@@H](Cc1c[nH]cn1)C(=O)N1CCC[C@H]1C(=O)N[C@@H](CO)C(=O)NC(C)(C)C(=O)N[C@@H](CCCCN)C(=O)N1CCC[C@H]1C(=O)N1CCC[C@H]1C(=O)N1CCC[C@H]1C(=O)N[C@@H](CCCCN)C(N)=O)[C@@H](C)CC)C(=O)O)C(=O)O
B2: SEQ ID NO: 7 (peptide)
peptide: H[Aib]QGTFTSDLSKLK([γGlu-γGlu-Palmitoyl])EKQRQ[Aib]EFIEWLKA[dA]GPPS[Aib]KPPPK-NH2
modifications: N-terminus assumed
SMILES: CCCCCCCCCCCCCCCC(=O)N[C@@H](CCC(=O)N[C@@H](CCC(=O)NCCCC[C@H](NC(=O)[C@H](CC(C)C)NC(=O)[C@H](CCCCN)NC(=O)[C@H](CO)NC(=O)[C@H](CC(C)C)NC(=O)[C@H](CC(=O)O)NC(=O)[C@H](CO)NC(=O)[C@@H](NC(=O)[C@H](Cc1ccccc1)NC(=O)[C@@H](NC(=O)CNC(=O)[C@H](CCC(N)=O)NC(=O)C(C)(C)NC(=O)[C@@H](N)Cc1c[nH]cn1)[C@@H](C)O)[C@@H](C)O)C(=O)N[C@@H](CCC(=O)O)C(=O)N[C@@H](CCCCN)C(=O)N[C@@H](CCC(N)=O)C(=O)N[C@@H](CCCNC(=N)N)C(=O)N[C@@H](CCC(N)=O)C(=O)NC(C)(C)C(=O)N[C@@H](CCC(=O)O)C(=O)N[C@@H](Cc1ccccc1)C(=O)N[C@H](C(=O)N[C@@H](CCC(=O)O)C(=O)N[C@@H](Cc1c[nH]c2ccccc12)C(=O)N[C@@H](CC(C)C)C(=O)N[C@@H](CCCCN)C(=O)N[C@@H](C)C(=O)N[C@H](C)C(=O)NCC(=O)N1CCC[C@H]1C(=O)N1CCC[C@H]1C(=O)N[C@@H](CO)C(=O)NC(C)(C)C(=O)N[C@@H](CCCCN)C(=O)N1CCC[C@H]1C(=O)N1CCC[C@H]1C(=O)N1CCC[C@H]1C(=O)N[C@@H](CCCCN)C(N)=O)[C@@H](C)CC)C(=O)O)C(=O)O
B3: SEQ ID NO: 18 (peptide)
peptide: H[Aib]QGTFTSDLSKLK([γGlu-γGlu-AEEA-Palmitoyl])EEQRQ[Aib]EFIEWLKAGGHPS[Aib]KPPPK-NH2
modifications: N-terminus assumed
SMILES: CCCCCCCCCCCCCCCC(=O)NCCOCCOCC(=O)N[C@@H](CCC(=O)N[C@@H](CCC(=O)NCCCC[C@H](NC(=O)[C@H](CC(C)C)NC(=O)[C@H](CCCCN)NC(=O)[C@H](CO)NC(=O)[C@H](CC(C)C)NC(=O)[C@H](CC(=O)O)NC(=O)[C@H](CO)NC(=O)[C@@H](NC(=O)[C@H](Cc1ccccc1)NC(=O)[C@@H](NC(=O)CNC(=O)[C@H](CCC(N)=O)NC(=O)C(C)(C)NC(=O)[C@@H](N)Cc1c[nH]cn1)[C@@H](C)O)[C@@H](C)O)C(=O)N[C@@H](CCC(=O)O)C(=O)N[C@@H](CCC(=O)O)C(=O)N[C@@H](CCC(N)=O)C(=O)N[C@@H](CCCNC(=N)N)C(=O)N[C@@H](CCC(N)=O)C(=O)NC(C)(C)C(=O)N[C@@H](CCC(=O)O)C(=O)N[C@@H](Cc1ccccc1)C(=O)N[C@H](C(=O)N[C@@H](CCC(=O)O)C(=O)N[C@@H](Cc1c[nH]c2ccccc12)C(=O)N[C@@H](CC(C)C)C(=O)N[C@@H](CCCCN)C(=O)N[C@@H](C)C(=O)NCC(=O)NCC(=O)N[C@@H](Cc1c[nH]cn1)C(=O)N1CCC[C@H]1C(=O)N[C@@H](CO)C(=O)NC(C)(C)C(=O)N[C@@H](CCCCN)C(=O)N1CCC[C@H]1C(=O)N1CCC[C@H]1C(=O)N1CCC[C@H]1C(=O)N[C@@H](CCCCN)C(N)=O)[C@@H](C)CC)C(=O)O)C(=O)O

Legend:
Test in all cases: cell-based or functional assay
[1] = target: human glucagon receptor (human) (UniProt P47871)
[2] = target: human GLP-1 receptor (human) (UniProt P43220)
human GIP receptor = target: T1, human GIP receptor
human glucagon receptor = human glucagon receptor (human, UniProt P47871 26-477)
human GLP-1 receptor = human GLP-1 receptor (human, UniProt P43220 24-463)

Chain of human glucagon receptor (P47871 26-477): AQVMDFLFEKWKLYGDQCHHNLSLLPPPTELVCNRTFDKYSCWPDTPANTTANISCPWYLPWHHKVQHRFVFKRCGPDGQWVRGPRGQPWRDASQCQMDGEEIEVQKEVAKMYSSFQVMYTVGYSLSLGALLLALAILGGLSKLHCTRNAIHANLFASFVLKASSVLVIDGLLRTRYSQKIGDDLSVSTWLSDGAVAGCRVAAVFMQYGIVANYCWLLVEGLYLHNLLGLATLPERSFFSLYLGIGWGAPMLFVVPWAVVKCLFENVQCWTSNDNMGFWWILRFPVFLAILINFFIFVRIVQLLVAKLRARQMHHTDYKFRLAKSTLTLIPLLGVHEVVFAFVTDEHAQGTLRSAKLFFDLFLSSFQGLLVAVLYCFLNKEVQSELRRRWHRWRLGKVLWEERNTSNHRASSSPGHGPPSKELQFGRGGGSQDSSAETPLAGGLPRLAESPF
Chain of human GLP-1 receptor (human) (P43220 24-463): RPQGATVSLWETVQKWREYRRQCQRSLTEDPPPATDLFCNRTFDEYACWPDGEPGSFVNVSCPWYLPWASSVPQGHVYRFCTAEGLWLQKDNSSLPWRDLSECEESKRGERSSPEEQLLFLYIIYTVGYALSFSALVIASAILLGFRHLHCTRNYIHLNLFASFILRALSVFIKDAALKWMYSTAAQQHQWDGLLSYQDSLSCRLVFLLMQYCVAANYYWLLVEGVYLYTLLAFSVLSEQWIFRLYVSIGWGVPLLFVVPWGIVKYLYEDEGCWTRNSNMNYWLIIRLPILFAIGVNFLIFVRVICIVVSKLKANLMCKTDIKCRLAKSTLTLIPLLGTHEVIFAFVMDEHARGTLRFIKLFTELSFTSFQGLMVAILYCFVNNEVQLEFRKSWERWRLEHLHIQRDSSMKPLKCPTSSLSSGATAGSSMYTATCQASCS
Chain of human glucagon receptor (human) (P47871 26-477): as the sequence (P47871 26-477) above

Molecule	EC50 hGlucagon R [pM] (cAMP formation) [1]	EC50 hGLP-1R [pM] (cAMP formation) [2]	EC50 hGIP R (cAMP formation) (human GIP receptor) [pM]	EC50 hGlucagon R (cAMP formation) (human glucagon receptor) [pM]	EC50 hGLP-1R (cAMP formation) (human GLP-1 receptor) [pM]
exendin-4 (peptide)	> 1e+07	0.4			
H[Aib]QGTFTSDLSKLK([γGlu-AEEA-gAAA-Palmitoyl])EEQRQ[Aib]EFIEWLKAGGHPS[Aib]KPPPK-NH2 (reading uncertain) [SEQ ID NO: 22]			6	108	2.1
B1			7.9	52.2	1.9
H[Aib]QGTFTSDLSKLK([γGlu-AEEA-gAAA-Palmitoyl])EKQRQ[Aib]EFIEWLKAGGHPS[Aib]KPPPK-NH2 (reading uncertain) [SEQ ID NO: 20]			12.7	44	2.4
H[Aib]QGTFTSDLSKLK([γGlu-AEEA-gAAA-Palmitoyl])EEQRQ[Aib]EFIEWLKA[dA]GHPS[Aib]KPPPK-NH2 (reading uncertain) [SEQ ID NO: 23]			2	64.3	1
B2			14.2	21.8	4
B3			5.6	46.6	1.7
H[Aib]QGTFTSDLSKLK([γGlu-AEEA-gAAA-Palmitoyl])EKQRQ[Aib]EFIEWLKA[dA]GHPS[Aib]KPPPK-NH2 (reading uncertain) [SEQ ID NO: 21]			24.6	69.9	4.2
